Assay results as given in US20230151111A1.
pEC50, pKd: −log10 of the molar value. Where “and” joins values, the source holds several entries; their conditions need not be identical. Identical values can stand only once. Blank lines part the entries; values can stand above or below the substance they belong to.

Tests used:
[1] = molecular target: human NT5E-Biotin (human) (UniProt P21589); assay: ELISA, NT5E-biotin on streptavidin; antibody 0.333 ug/mL diluted 1:243
[2] = molecular target: human NT5E(1-552)-his (human) (UniProt P21589); assay: BLI (Fortebio), antibody on Protein A sensor, NT5E(1-552)-his 3.125-200 nM, 37 C
human NT5E(1-552)-his (human), sequence (P21589 27-552 limits assumed): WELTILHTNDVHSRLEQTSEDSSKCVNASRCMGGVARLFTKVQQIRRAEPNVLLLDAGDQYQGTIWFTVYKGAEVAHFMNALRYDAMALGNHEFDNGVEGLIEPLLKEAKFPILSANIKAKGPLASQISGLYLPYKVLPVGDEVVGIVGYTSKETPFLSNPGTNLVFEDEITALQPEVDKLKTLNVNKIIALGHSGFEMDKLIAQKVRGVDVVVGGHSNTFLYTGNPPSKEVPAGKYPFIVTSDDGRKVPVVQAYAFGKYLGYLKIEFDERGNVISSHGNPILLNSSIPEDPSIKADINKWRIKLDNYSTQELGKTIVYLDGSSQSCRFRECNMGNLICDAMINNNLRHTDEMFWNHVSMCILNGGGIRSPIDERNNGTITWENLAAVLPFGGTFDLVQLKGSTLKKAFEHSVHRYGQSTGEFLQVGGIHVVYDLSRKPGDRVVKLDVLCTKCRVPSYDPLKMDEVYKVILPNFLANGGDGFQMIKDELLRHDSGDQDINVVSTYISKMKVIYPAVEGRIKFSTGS

[3] = molecular target: human NT5E-Biotin (human) (UniProt P21589); assay: ELISA, NT5E-biotin on streptavidin; antibody 0.333 ug/mL diluted 1:3
[4] = molecular target: human NT5E-Biotin (human) (UniProt P21589); assay: ELISA, NT5E-biotin on streptavidin; antibody 0.333 ug/mL diluted 1:729
[5] = molecular target: human NT5E-Biotin (human) (UniProt P21589); assay: ELISA, NT5E-biotin on streptavidin; antibody 0.333 ug/mL diluted 1:27
[6] = molecular target: human NT5E-Biotin (human) (UniProt P21589); assay: ELISA, NT5E-biotin on streptavidin; antibody 0.333 ug/mL diluted 1:81
[7] = molecular target: human NT5E-Biotin (human) (UniProt P21589); assay: ELISA, NT5E-biotin on streptavidin; antibody 0.333 ug/mL
[8] = molecular target: human NT5E-Biotin (human) (UniProt P21589); assay: ELISA, NT5E-biotin on streptavidin
[9] = molecular target: human NT5E-Biotin (human) (UniProt P21589); assay: ELISA, NT5E-biotin on streptavidin; antibody 0.333 ug/mL diluted 1:9
PD-1-mFc (human) [10] = molecular target: PD-1-mFc (human) (UniProt Q15116); assay: ELISA, PD-1-mFc coated; antibody 1 ug/mL diluted 1:27
PD-1-mFc (human), sequence (Q15116 other isoform, or with tags, fused parts or gaps limits assumed): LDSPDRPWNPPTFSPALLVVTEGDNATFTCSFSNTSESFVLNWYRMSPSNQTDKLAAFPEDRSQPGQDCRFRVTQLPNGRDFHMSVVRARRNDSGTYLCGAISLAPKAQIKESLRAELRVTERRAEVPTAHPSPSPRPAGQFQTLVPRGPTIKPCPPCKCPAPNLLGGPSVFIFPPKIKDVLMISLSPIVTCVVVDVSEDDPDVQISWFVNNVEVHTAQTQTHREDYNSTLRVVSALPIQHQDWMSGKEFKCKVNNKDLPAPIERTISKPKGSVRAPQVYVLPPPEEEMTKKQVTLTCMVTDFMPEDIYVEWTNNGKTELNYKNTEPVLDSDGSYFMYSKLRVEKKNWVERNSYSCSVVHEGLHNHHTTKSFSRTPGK

PD-1-mFc (human) [11] = molecular target: PD-1-mFc (human) (UniProt Q15116); assay: ELISA, PD-1-mFc coated; antibody 1 ug/mL
PD-1-mFc (human) [12] = molecular target: PD-1-mFc (human) (UniProt Q15116); assay: ELISA, PD-1-mFc coated; antibody 1 ug/mL diluted 1:9
[13] = molecular target: human PD-1-mFc-biotin (human) (UniProt Q15116); assay: competitive ELISA, competitor coated PD-L1-mFc; antibody 5 ug/mL diluted 1:729
human PD-1-mFc-biotin (human), sequence (Q15116 other isoform, or with tags, fused parts or gaps limits assumed): as above

PD-1-mFc (human) [14] = molecular target: PD-1-mFc (human) (UniProt Q15116); assay: ELISA, PD-1-mFc coated; antibody 1 ug/mL diluted 1:243
[15] = molecular target: human PD-1-mFc-biotin (human) (UniProt Q15116); assay: competitive ELISA, competitor coated PD-L1-mFc; antibody 5 ug/mL diluted 1:243
[16] = molecular target: human PD-1-mFc-biotin (human) (UniProt Q15116); assay: competitive ELISA, competitor coated PD-L1-mFc; antibody 5 ug/mL diluted 1:3
[17] = molecular target: human PD-1-mFc-biotin (human) (UniProt Q15116); assay: competitive ELISA, competitor coated PD-L1-mFc; antibody 5 ug/mL diluted 1:81
PD-1-mFc (human) [18] = molecular target: PD-1-mFc (human) (UniProt Q15116); assay: ELISA, PD-1-mFc coated; antibody 1 ug/mL diluted 1:3
[19] = molecular target: human PD-1-mFc-biotin (human) (UniProt Q15116); assay: competitive ELISA, competitor coated PD-L1-mFc; antibody 5 ug/mL diluted 1:27
[20] = molecular target: human PD-1-mFc-biotin (human) (UniProt Q15116); assay: competitive ELISA, competitor coated PD-L1-mFc; antibody 5 ug/mL diluted 1:9
[21] = molecular target: human PD-1-mFc-biotin (human) (UniProt Q15116); assay: competitive ELISA, competitor coated PD-L1-mFc; antibody 5 ug/mL
[22] = molecular target: human PD-1-mFc-biotin (human) (UniProt Q15116); assay: competitive ELISA, blocking of PD-1-mFc-biotin binding to coated PD-L1-mFc
PD-1-mFc (human) [23] = molecular target: PD-1-mFc (human) (UniProt Q15116); assay: ELISA, PD-1-mFc coated; antibody 1 ug/mL diluted 1:81
PD-1-mFc (human) [24] = molecular target: PD-1-mFc (human) (UniProt Q15116); assay: ELISA, PD-1-mFc coated; antibody 1 ug/mL diluted 1:729

human NT5E-Biotin (human), sequence (P21589 27-552 limits assumed, form in doubt): as the sequence (P21589 27-552 limits assumed) above

OD450 [1]: 0.547 OD and 0.587 OD
pKd [2]: 9.98
koff [2]: 2.44e-05 s⁻¹
kon [2]: 234000 M⁻¹ s⁻¹
OD450 [3]: 2.43 OD and 2.53 OD
OD450 [4]: 0.288 OD and 0.305 OD
OD450 [5]: 1.73 OD and 1.81 OD
OD450 [6]: 1.09 OD and 1.17 OD
OD450 [7]: 2.46 OD and 2.57 OD
pEC50 [8]: 10.38
OD450 [9]: 2.22 OD and 2.35 OD
Substance: MEDI9447 (antibody)

OD450 (PD-1-mFc (human) [10]): 2.2 OD and 2.22 OD
OD450 (PD-1-mFc (human) [11]): 2.39 OD and 2.47 OD
OD450 (PD-1-mFc (human) [12]): 2.52 OD and 2.57 OD
OD450 [13]: 1.35 OD and 1.28 OD
OD450 (PD-1-mFc (human) [14]): 0.98 OD
OD450 [15]: 1.39 OD and 1.21 OD
OD450 [16]: 0.075 OD and 0.076 OD
OD450 [17]: 1.24 OD and 1.15 OD
OD450 (PD-1-mFc (human) [18]): 2.44 OD
OD450 [19]: 1.01 OD and 0.875 OD
OD450 [20]: 0.107 OD and 0.1 OD
OD450 [21]: 0.057 OD
pEC50 [22]: 8.77
OD450 (PD-1-mFc (human) [23]): 1.71 OD
OD450 (PD-1-mFc (human) [24]): 0.521 OD and 0.498 OD
Substance: nivolumab (antibody)
